Test results as given in patent EP4520771A2 (Genmab A/S, dated 2025).
Positions count from the first letter of the chain named. Read-outs that look alike come from different tables or passages of the source.

B1: HER2 antibody 132 (antibody, V domains shown)
VH: QVQLVQSGAEVKKPGASVKVSCKASGYTFTSYGISWVRQAPGQGLEWMGWISAYNGNSNYVQKFQGRVTMTTDTTTSTAYMELRSLTSDDTAVYYCAREYSYDSGTYFYYGMDVWGQGTTVTVSS
VL: EIVLTQSPATLSLSPGERATLSCRASQSVSSYLAWYQQKPGQAPRLLIYDASNRATGIPARFSGSGSGTDFTLTISSLEPEDFAVYYCQQRSNWPMYTFGQGTKLEIK
B2: HER2 antibody 084 (antibody, V domains shown)
VH: QVQLVQSGAEVKKPGSSVKVSCKASGGTFRTYAINWVRQAPGQGLEWMGRINTVLGIVNHAQKFQGRVTITADKSTNTAYMELNSLRSEDTAVYYCAREKGVDYYYGIEVWGQGTTVTVSS
VL: DIQMTQSPSSVSASVGDRVTITCRASQGISSWLAWYQHKPGKAPKLLIYVASTLQSGVPSRFSGSGSGTDFTLTISSLQPEDFATYYCQQANSFPLTFGGGTKVEIK
B3: HER2 antibody 050 (antibody, V domains shown)
VH: EVQLLESGGGLVQPGGSLRLSCAASGFTFSSYAMNWVRQAPGKGLEWVSAISGRGGTTYYADSVKGRFTISRDNSKNTLYLQMSSLRAEDTAVYYCAKARANWDYFDYWGQGTLVTVSS
VL: B2 VL with V50A, T53I, L96I, G100Q, K103R, V104L
B4: HER2 antibody 111 (antibody, V domains shown)
VH: QVQLVQSGAEVKKPGSSVKVSCKASGGTFSSYGISWVRQAPGPGLEWMGRIIPILGIANYAQKFQGRVTITADKSTNTAYMELSSLRSEDTAVYYCARDQEYSSNWYYWGQGTLVTVSS
VL: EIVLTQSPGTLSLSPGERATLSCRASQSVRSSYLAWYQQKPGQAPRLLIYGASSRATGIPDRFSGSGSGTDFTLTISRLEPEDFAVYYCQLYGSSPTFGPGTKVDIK
B5: HER2 antibody 060 (antibody, V domains shown)
VH: EVQLVQSGAEVKKPGESLKISCKGSGYRFTSYWIGWVRQMPGKGLEWMGSIYPGDSYTRNSPSFQGQVTISADKSIATAYLQWNSLKASDTAMYYCARHAGDFYYFDGLDVWGQGTTVTVSS
VL: not shown
B6: HER2 antibody 059 (antibody, V domains shown)
VH: QVQLVQSGAEVKKPGASVRVPCKASGYTFTRYGISWVRQAPGQGLEWMGWISAYNGKTYYAQKLQGRVTMTTDTSTSTAYMELRSLRSDDTAVYYCARSPLLWFEELYFDYWGQGTLVTVSS
VL: EIVLTQSPGTLSLSPGERATLSCRASQSVSSTYLAWYQQKPGQAPRLLIYGASSRATGIPDRFSGSGSGTDFTLTISRLEPEDFAVYYCQQYGTSLFTFGPGTKVDIK
B7: HER2 antibody 106 (antibody, V domains shown)
VH: EVQLVQSGAEVKKPGESLKISCKGSGYSFTRYWIGWVRQMPGKGLEWMGIIYPGDSDTRYSPSFQGQVTISADKSISTAYLQWSSLKASDTAMYYCARLTGDRGFDYYSGMDVWGQGTTVTVSS
VL: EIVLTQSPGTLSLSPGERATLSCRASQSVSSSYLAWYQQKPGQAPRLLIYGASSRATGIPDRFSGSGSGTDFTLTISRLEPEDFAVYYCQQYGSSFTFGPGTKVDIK
B8: HER2 antibody 129 (antibody, V domains shown)
VH: QVQLVESGGGVVQPGRSLRLSCAASGFTFSTFAIHWVRQAPGKGLEWVAVISYDGGHKFYADSVKGRFTISRDNSKNTLYLQMNSLRAEDTAMYYCARGLGVWGAFDYWGQGTLVTVSS
VL: EIVLTQSPATLSLSPGERATLSCRASQSVSSYLAWYQQKPGQAPRLLIYDASNRATGIPARFSGSGSGTDFTLTISSLEPEDFAVYYCQQRSNWWTFGQGTKVEIK
B9: HER2 antibody 005 (antibody, human IgG1, V domains shown)
VH: EVQLVQSGAEVKKPGESLKISCKASGYSFHFYWIGWVRQMPGKGLEWMGSIYPGDSDTRYRPSFQGQVTISADKSISTAYLQWTSLKASDTAIYYCARQRGDYYYFYGMDVWGQGTTVTVSS
VL: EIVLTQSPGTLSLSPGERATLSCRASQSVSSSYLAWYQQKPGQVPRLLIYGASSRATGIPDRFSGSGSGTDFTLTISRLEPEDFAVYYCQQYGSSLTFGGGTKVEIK
notes: human IgG1,κ; also called HuMab 005; PC1014-005
B10: HER2 antibody 169 (antibody, V domains shown)
VH: QVQLVQSGAEVKKPGASVKVSCKASGYTFTNYGISWVRQAPGQGLEWMGWLSAYSGNTIYAQKLQGRVTMTTDTSTTTAYMELRSLRSDDTAVYYCARDRIVVRPDYFDYWGQGTLVTVSS
VL: EIVLTQSPATLSLSPGERATLSCRASQSVSSYLAWYQQKPGQAPRLLIYDASNRATGIPARFSGSGSGTDFTLTISSLEPEDFAVYYCQQRSNWPRTFGQGTKVEIK
B11: HER2 antibody 159 (antibody, V domains shown)
VH: EVQLVQSGAEVKKPGESLKISCKGSGYNFTSYWIGWVRQMPGKGLEWMGIIYPGDSDTRYSPSFQGQVTISADKSISTAYLQWSSLKASDTAMYYCARWGTYYDILTGYFNWFDPWGQGTLVTVSS
VL: DIQMTQSPSSLSASVGDRVTITCRASQGISSWLAWYQQKPEKAPKSLIYAASSLQSGVPSRFSGSGSGTDFTLTISSLQPEDFATYYCQQYYIYPWTFGQGTKVEIK
B12: HER2 antibody 091 (antibody, V domains shown)
VH: QVQLQQWGAGLLKPSETLSLTCAVSGGSFSGYYWTWIRQPPGKGLEWIGEIYHSGDTNYNPSLKSRVTISVDTSKNQFSLKLYSVTAADTAVYYCARLYFGSGIYYLDYWGQGTLVTVSS
VL: B11 VL with A34V, Y92N, I93S, Y94F, W96P
B13: HER2 antibody 025 (antibody, V domains shown)
VH: QVQLQQWGAGLLKPSETLSLTCAVYGGSFSDYYWNWIRQPPGKGLEWIGEIHHSGSTNYNPSLKSRVTISVDTSKNQFSLKLSSVTAADTAVYYCARGYYDSGVYYFDYWAQGTLVTVSS
VL: B11 VL with S31R, Q55R, Y92N, I93S, W96I, K103R, V104L
notes: also called HuMab-025; PC1014-025
B14: HER2 antibody 098 (antibody, V domains shown)
VH: EVQLLESGGGLVQPGGSLRLSCAASGFTFSNYGMSWVRQAPGKGLEWVSAISGSAYSTYYADSVKGRFTISRDNSKNTLWLQMNSLRAEDTAVYYCAKAHYHGSGSYYTLFDYWGQGTLVTVSS
VL: B11 VL with Y92N, I93S, W96Y, V104L
notes: also called PC1014-098; TH1014-098
B15: HER2 antibody 153 (antibody, V domains shown)
VH: QVQLVESGGGVVQPGRSLRLSCAASGFTFSDYVIHWVRQAPGKGLEWVTVISYDGSNKYYADSVKGRFTISRDNSKNTLYLQMNSLSAEDTAMYYCARGGITGTTGVFDYWGQGTLVTVSS
VL: B11 VL with A50D, S67Y, T72S, T85I, Y92K, I93S, W96I, K103R, V104L
B16: HER2 antibody 127 (antibody, V domains shown)
VH: EVQLVQSGAEVKKPGESLTISCKGSGYSFSIYWIGWVRQMPGKGLEWMGIIFPGDSDIRYSPSFQGQVTISADKSISTAYLQWSSLKASDTAMYYCARQPGDWSPRHWYFDLWGRGTLVTVSS
VL: VIWMTQSPSLLSASTGDRVTISCRMSQGISSYLAWYQQKPGKAPELLIYAASTLQSGVPSRFSGSGSGTDFTLTISYLQSEDFATYYCQQYYSFPLTFGGGTKVEIK

Columns and labels:
[1] = target: T1, human epidermal growth factor receptor 2 (HER2) (human, UniProt P04626 23-1255); assay: cell-based or functional assay
[2] = target: T1, human epidermal growth factor receptor …; assay: cell-based or functional assay; remark: listed apart in the source
[3] = target: T1, human epidermal growth factor receptor …; assay: cell-based or functional assay; remark: listed apart in the source
[4] = target: T1, human epidermal growth factor receptor …; assay: cell-based or functional assay; remark: listed apart in the source
[5] = target: T1, human epidermal growth factor receptor …; assay: cell-based or functional assay; remark: listed apart in the source
[6] = target: T1, human epidermal growth factor receptor …; assay: flow cytometry on A431 cells
[7] = target: T1, human epidermal growth factor receptor …; assay: flow cytometry on AU565 cells

| Binder | % cells killed (maximal), AU565 cells, anti-kappa-ETA'-conjugated antibody [1] | EC50 of AU565 cell kill, anti-kappa-ETA'-conjugated antibody [1] | % cells killed (maximal), A431 cells, anti-kappa-ETA'-conjugated antibody [2] | % cells killed (maximal), AU565 cells, anti-kappa-ETA'-conjugated antibody [3] | EC50 of AU565 cell kill, anti-kappa-ETA'-conjugated antibody [3] | EC50 of A431 cell kill, anti-kappa-ETA'-conjugated antibody [2] | other results |
| --- | --- | --- | --- | --- | --- | --- | --- |
| B1 | 61.6% | 0.0394 µg/mL | – | – | – | – | – |
| B2 | 58.1% | 0.027 µg/mL | 50.5% | – | – | – | – |
| B3 | 52.4% | 0.0127 µg/mL | – | – | – | – | – |
| B4 | – | – | – | 72% | 0.0242 µg/mL | – | EC50 of A431 cell kill, anti-kappa-ETA'-conjugated antibody [4]: ~0.01 µg/mL |
| B5 | – | – | – | 64.3% | 0.0794 µg/mL | – | EC50 of A431 cell kill, anti-kappa-ETA'-conjugated antibody [5]: ~0.01 µg/mL |
| B6 | – | – | – | 67% | 0.0677 µg/mL | – | – |
| B7 | – | – | – | 59.1% | 0.108 µg/mL | – | – |
| B8 | 60.8% | 0.0309 µg/mL | 75.9% | – | – | ~0.0106 µg/mL | – |
| B9 | – | – | – | 69.7% | 0.0151 µg/mL | – | EC50 of A431 cell kill, anti-kappa-ETA'-conjugated antibody [5]: ~0.0101 µg/mL; binding result [6]: binds |
| B10 | 49.9% | 0.0356 µg/mL | 34% | – | – | – | – |
| B11 | 70.3% | 0.0349 µg/mL | – | – | – | – | – |
| B12 | 50.6% | 0.0465 µg/mL | 83.3% | – | – | ~0.00986 µg/mL | – |
| B13 | 60% | 0.0167 µg/mL | 86.7% | – | – | ~0.00977 µg/mL | binding result [6]: binds |
| B14 | 58.7% | 0.0121 µg/mL | 87.2% | – | – | 0.00165 µg/mL | EC50 [7]: 0.336 µg/mL; EC50 [6]: 0.068 µg/mL |
| B15 | 60.3% | 0.0323 µg/mL | 82.4% | – | – | ~0.0101 µg/mL | – |
| B16 | 69% | 0.0345 µg/mL | – | – | – | – | – |
